Literature values, collected in US20230107428A1 (priority 2021, published 2023).

What was measured:
[1] = system: hepatitis B virus; details: in vitro; cited from earlier work
[2] = target: T1, interleukin-6 receptor (Homo sapiens, UniProt P08887); details: tocilizumab or sarilumab, intensive care units; cited from earlier work
T1 construct: host or cells: patients (endogenous receptor)
T1 sequence (P08887 20-468): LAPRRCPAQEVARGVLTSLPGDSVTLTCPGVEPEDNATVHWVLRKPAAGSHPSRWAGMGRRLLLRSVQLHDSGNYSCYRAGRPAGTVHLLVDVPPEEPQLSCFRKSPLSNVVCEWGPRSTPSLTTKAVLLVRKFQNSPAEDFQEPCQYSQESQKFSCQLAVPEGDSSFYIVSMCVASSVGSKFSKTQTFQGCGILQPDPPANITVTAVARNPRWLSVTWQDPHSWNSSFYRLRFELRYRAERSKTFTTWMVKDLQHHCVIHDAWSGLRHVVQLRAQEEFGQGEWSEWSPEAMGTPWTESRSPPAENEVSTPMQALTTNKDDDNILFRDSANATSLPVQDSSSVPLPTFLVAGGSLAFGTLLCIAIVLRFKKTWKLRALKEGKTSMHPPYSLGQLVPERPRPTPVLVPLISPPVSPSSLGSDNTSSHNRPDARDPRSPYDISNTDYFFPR

For `CC(=O)O[C@H]([C@@H]1C[C@@H](C)C2=C3C=C[C@H]4[C@@]5(C)CCC(=O)C(C)(C)[C@@H]5CC[C@]4(C)[C@@]3(C)C[C@@H]2O1)C(C)(C)O` [Alisol O], the “inhibition of hepatitis B virus” value [1] is given as “could inhibit”.

In the case of tocilizumab [reference compound], the “survival in severe patients” value [2] is given as “increased”.

B1: sarilumab (antibody, chains of the INN, looked up, V domains shown)
VH: EVQLVESGGGLVQPGRSLRLSCAASRFTFDDYAMHWVRQAPGKGLEWVSGISWNSGRIGYADSVKGRFTISRDNAENSLFLQMNGLRAEDTALYYCAKGRDSFDIWGQGTMVTVSS
VL: DIQMTQSPSSVSASVGDRVTITCRASQGISSWLAWYQQKPGKAPKLLIYGASSLESGVPSRFSGSGSGTDFTLTISSLQPEDFASYYCQQANSFPYTFGQGTKLEIK
For B1, the “survival in severe patients” value [2] is given as “increased”.
